Experimental data from patent US20210179666A1 (REGENTS OF THE UNIVERSITY OF MINNESOTA, published 2021).
Read-outs that look alike come from different tables or passages of the source. Values belong to the binder of their own block, whether it stands above or below them. Square brackets hold non-standard residues; d marks the D form.

What was measured:
[1] = target: T1, human melanocortin 4 receptor (human, UniProt P32245 1-332); assay: cell-based or functional assay
[2] = target: T2, mouse melanocortin 1 receptor (mouse, UniProt Q01727 1-315); assay: cell-based or functional assay
T2 sequence (Q01727 whole entry): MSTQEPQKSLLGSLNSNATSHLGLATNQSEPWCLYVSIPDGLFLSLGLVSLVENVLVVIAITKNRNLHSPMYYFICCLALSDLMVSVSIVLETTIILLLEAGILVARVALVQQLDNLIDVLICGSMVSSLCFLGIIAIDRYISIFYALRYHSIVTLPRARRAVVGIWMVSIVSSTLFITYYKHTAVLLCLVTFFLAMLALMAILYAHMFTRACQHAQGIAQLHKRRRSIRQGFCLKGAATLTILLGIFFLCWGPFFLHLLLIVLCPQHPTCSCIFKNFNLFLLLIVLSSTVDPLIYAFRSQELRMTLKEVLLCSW

[3] = target: T3, mouse melanocortin 3 receptor (mouse, UniProt P33033 1-323); assay: cell-based or functional assay
T3 sequence (P33033 whole entry): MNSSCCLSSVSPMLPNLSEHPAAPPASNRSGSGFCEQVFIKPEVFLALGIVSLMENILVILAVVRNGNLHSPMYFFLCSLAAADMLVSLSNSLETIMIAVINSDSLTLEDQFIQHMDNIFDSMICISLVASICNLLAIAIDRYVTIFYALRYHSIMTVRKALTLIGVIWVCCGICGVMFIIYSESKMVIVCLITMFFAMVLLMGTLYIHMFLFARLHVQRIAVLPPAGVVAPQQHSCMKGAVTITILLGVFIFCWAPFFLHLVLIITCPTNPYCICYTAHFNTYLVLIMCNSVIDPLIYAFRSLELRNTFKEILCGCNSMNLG

[4] = target: T4, mouse melanocortin 4 receptor (mouse, UniProt P56450 1-332); assay: cell-based or functional assay
T4 sequence (P56450 whole entry): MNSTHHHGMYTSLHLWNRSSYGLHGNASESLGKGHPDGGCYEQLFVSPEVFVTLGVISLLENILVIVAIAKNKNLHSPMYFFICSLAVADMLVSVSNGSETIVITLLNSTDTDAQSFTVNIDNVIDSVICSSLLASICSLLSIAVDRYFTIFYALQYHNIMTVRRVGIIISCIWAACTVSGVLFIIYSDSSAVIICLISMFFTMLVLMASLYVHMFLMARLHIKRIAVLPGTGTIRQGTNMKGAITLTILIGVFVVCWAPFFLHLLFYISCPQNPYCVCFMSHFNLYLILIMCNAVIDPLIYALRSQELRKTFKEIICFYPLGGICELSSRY

[5] = target: T5, mouse melanocortin 5 receptor (mouse, UniProt P41149 1-325); assay: cell-based or functional assay
T5 sequence (P41149 whole entry): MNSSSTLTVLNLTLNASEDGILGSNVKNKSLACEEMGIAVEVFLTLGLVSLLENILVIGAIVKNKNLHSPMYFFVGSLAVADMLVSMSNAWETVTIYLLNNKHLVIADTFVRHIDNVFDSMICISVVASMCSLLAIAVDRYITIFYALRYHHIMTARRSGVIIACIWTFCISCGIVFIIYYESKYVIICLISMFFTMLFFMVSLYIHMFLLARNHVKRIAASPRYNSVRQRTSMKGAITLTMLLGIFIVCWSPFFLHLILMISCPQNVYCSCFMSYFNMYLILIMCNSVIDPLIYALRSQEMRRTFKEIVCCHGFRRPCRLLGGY

[6] = target: T2, mouse melanocortin 1 receptor; assay: 125I-NDP-MSH competition, HEK293 cells
[7] = target: T3, mouse melanocortin 3 receptor; assay: 125I-NDP-MSH competition, HEK293 cells
[8] = target: T4, mouse melanocortin 4 receptor; assay: 125I-NDP-MSH competition, HEK293 cells
[9] = target: T5, mouse melanocortin 5 receptor; assay: 125I-NDP-MSH competition, HEK293 cells
[10] = target: T1, human melanocortin 4 receptor; assay: 125I-NDP-MSH competition, HEK293 cells
[11] = target: T2, mouse melanocortin 1 receptor; assay: 125I-NDP-MSH competition; fold vs SEQ ID NO: 1 control
[12] = target: T3, mouse melanocortin 3 receptor; assay: as above
[13] = target: T4, mouse melanocortin 4 receptor; assay: as above
[14] = target: T5, mouse melanocortin 5 receptor; assay: as above
[15] = target: T1, human melanocortin 4 receptor; assay: as above
[16] = target: T3, mouse melanocortin 3 receptor; assay: cell-based or functional assay; remark: listed apart in the source
[17] = target: T4, mouse melanocortin 4 receptor; assay: cell-based or functional assay; remark: listed apart in the source
[18] = target: T5, mouse melanocortin 5 receptor; assay: cell-based or functional assay; remark: listed apart in the source

T1 sequence (P32245 whole entry): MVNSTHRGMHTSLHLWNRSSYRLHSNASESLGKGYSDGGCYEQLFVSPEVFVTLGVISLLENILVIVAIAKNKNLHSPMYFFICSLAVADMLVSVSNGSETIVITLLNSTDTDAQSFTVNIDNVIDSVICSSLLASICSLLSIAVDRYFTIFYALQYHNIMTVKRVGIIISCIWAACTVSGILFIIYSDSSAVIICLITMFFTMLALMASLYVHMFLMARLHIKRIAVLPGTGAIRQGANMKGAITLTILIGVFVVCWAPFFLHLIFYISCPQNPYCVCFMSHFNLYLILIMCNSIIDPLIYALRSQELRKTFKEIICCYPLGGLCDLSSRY

pA2 (Schild analysis, agonist NDP-MSH, cAMP) [1]: 7.8 | percent maximal stimulatory response at 100 µM (cAMP) [2]: 23% | EC50 (cAMP agonist) [3]: > 100 µM | pA2 (Schild analysis, agonist NDP-MSH, cAMP) [3]: 5.9 | pA2 (Schild analysis, agonist NDP-MSH, cAMP) [4]: 7.2 | percent maximal stimulatory response at 100 µM (cAMP) [4]: 16% | EC50 (cAMP agonist) [5]: > 100 µM | pA2 (Schild analysis, agonist NDP-MSH, cAMP) [5]: 6.1 | IC50 [6]: 15 µM | IC50 [7]: 53 µM | IC50 [8]: 0.038 µM | IC50 [9]: 29 µM | IC50 [10]: 0.25 µM | Fold Diff [11]: 2 fold | Fold Diff [12]: 3 fold | Fold Diff [13]: 2 fold | Fold Diff [14]: 2 fold | Fold Diff [15]: 3 fold
B1: ZMK 2-82 (peptide)
peptide: cyclo(PRFFNVF[dP])
notes: Ala115Val SNP in the Asn scaffold; also called c[Pro-Arg-Phe-Phe-Asn-Val-Phe-DPro]

pA2 (Schild analysis, agonist NDP-MSH, cAMP) [16]: < 5 | pA2 (Schild analysis, agonist NDP-MSH, cAMP) [17]: 5.9 | pA2 (Schild analysis, agonist NDP-MSH, cAMP) [18]: < 5 | pA2 (Schild analysis, agonist NDP-MSH, cAMP) [1]: 5.8 | IC50 [6]: 24.6 µM | IC50 [8]: 1.9 µM | IC50 [10]: 19.3 µM | Fold Diff [11]: 3 fold | Fold Diff [13]: 90 fold | Fold Diff [15]: 300 fold
B2: ZMK 3-18 (peptide)
peptide: cyclo(PCFFNAF[dP])
notes: Arg111Cys SNP in the Asn scaffold; also called c[Pro-Cys-Phe-Phe-Asn-Ala-Phe-DPro]
